Measured values as given in patent US20250215071A1, “Novel Mcl-1 inhibitor and combination of Mcl-1 and a BH3 mimetic, such as a Bcl-2 inhibitor” (NETRIS PHARMA, priority 2022, published 2025).

Tested on: EMT6 cells
Experiment: EMT6 syngeneic breast tumor model, tumor growth and survival
Assay type: in vivo, BALB/c mice
Conditions: NP137 20 mg/Kg loading then 10 mg/Kg i.v.; Venetoclax 5 mg/Kg oral gavage; vs isotypic control antibody
Experimental: FIG. 8. Combining netrin-1 interference and BH3 mimetics inhibits tumor growth in preclinical in vivo and ex vivo models. ((A,B,C): Combining netrin-1 interference and Bcl-2 inhibition restrains tumor growth in a syngeneic breast cancer model. EMT6 cells were engrafted in BALB/c mice and, once tumors reached a volume of 50 mm^3, treated with isotypic (Iso-mAb) or NP137 antibodies and the Bcl-2 inhibitor Venetoclax, as single agents or in combination. Tumor volumes were measured at the indicated days after the first treatment (n=9, ** p<0.01, ordinary two-way ANOVA with Tukey's multiple comparisons test) (A,B). Survival rate was assessed at sacrifice of mice with tumors more than 500 mm^3 (C). (D,E,F): Combined treatment is efficient to induce apoptosis in human ex vivo slices. Cleaved active caspase-3-positive cells were assessed by IHC staining in fresh ex vivo breast tumor tissue slices. […]
FIG. 9. […] 24 hours later, apoptosis was quantified by Annexin V/propidium iodide (PI) staining. EC50 values were calculated using nonlinear regression of Dose-response curves with GraphPad Prism software. […] Apoptosis was then evaluated by 5′,6,6′-tetrachloro-1,1′,3,3′-tetraethylbenzimi-dazolylcarbocyanine iodide (JC-1) dye staining, using NucleoCounter NC3000 (n=2, *p<0.05, ordinary two-way ANOVA with Tukey's multiple comparisons test). […]

B1: NP137: humanized anti-netrin-1 monoclonal antibody, VH SEQ ID NO: 22, VL SEQ ID NO: 16, human IgG1 (antibody, V domains shown)
VH: QVQLQQSGPGLVKPSQTLSLTCAISGYTFTSYNMHWVRQATGQGLEWMGAIYPGNGDTSYNQKFKGRLTISKDTSKNQVVLTMTNMDPVDTATYYCARGGTGFAYWGQG
VL: DIQMTQSPSSLSASVGDRVTITCKASQSVSNDVAWYQQKPGQAPRLLIYYASNRYTGIPPRFSGSGYGTDFTLTINNIESEDAAYYFCQQDYSSPWTFGQG
modifications: human IgG1 constant region; humanized variant; MISC_FEATURE - CDR according to IGMT
  tumor growth: no effect on tumor growth
